In the DeepSol protein solubility set:

assay: soluble on expression in E. coli; label from the status in PepcDB or PDB records

Sequence | soluble on expression in E. coli
MGSDKIHHHHHHMDVQVYFSKVEDPRVVGRCKHKLSDILVIALASYLCGGEDYESMHELCLERGASLRPPVELPNGCPSVDTFERVLQRIEPQSLYACLQVYGKELISDLEGKHIAIDGKRLKGSKKKTGSTHILSAWVDEVSLSLAQETVAEKRNELQAIPEVLDSLDLSGAVISINAMGTQTNIAEQIIQSEADYILSLKSNQKHLYEDVQDYFTGQYRCHRYETLEKDHGRIEKRTYTTLLASEVFEEGEYSQWQGLRSLIQVEREISSLEGETRIDRQYYISSLPPEDCQLIGQYIRGHWGIENRLHWHLDVTFREDTCRARKDYSATNLNTLRKFALAIVSGHKDKLSLRKRLFKAALNIDYLKKLLKI | not soluble
MGSDKIHHHHHHMDVVDELIKLHEEHVSGLLRLCGQAGWPDYGEQELKLLVQQGRFFGYQNVSGDIISCIGLFLFGRLTSIGLVIVDKEYQRLGLGRRMVNACITQTDENTAIRLCATKEGLPLYEKAGFHTAGSVRKYSCHSFQPYTKKLDAELTSFREQDFHDLTAADLAAFGGDRSNLLQQLISASCECIIARNQDGQLIGYGLSVQTPANLKFGPIIAPSSDVAAQIITRLAAGKQGPMRIDIPSEHTSLHDSLIEMGFHKDDEPPILFYQKKAPIQNGHLYALISQALG | not soluble
MGSDKIHHHHHHMEANNGKMERIQEMLRMFGLSSYEAQGFAALVYHGVANADTIASTANIPRTSAYKVMESLVRKGLAKATEGRPRMFKPAKMEEIRDYYEEKLQQLFRDLKELEDNAPSRGEPQLIYTINGSQKVMEKIEEMINLTEHEIMISTPKIIEIRKQMKKPIENAIKRGVRVVFVIPPNKRVPANVIVYRRDGLIATDIVSDQIRALIAGPDLETCGYSDNPMLSMHVYQFINILINKPEIQG | not soluble
MGSDKIHHHHHHMEETNEMKDSKHLISNIQSQYTRLSKGQKLIAQYILNNYDKVAFMTACKLGETVGVSESTVVRFANALGYSGYPKLQAALQELIKNKLTTVQRVEMAHDYSDDFAILNKVLKSDIDNIRSTLEEIDERAFKEASNKLLRARKIYILGMRSSFVVAQYLGFYLDIILDNVHIIRMDMGDAFEQIVRINEEDVIVAISFPRYSKKSYQIVNYAKEKGAHVISLTDSLFAPVASLADNTLLVKSNMASFVDSLVPALSISNALAISVGMKEKEDIKQHFDDLEQIWKRYSVYE | not soluble
MGSDKIHHHHHHMEHPENNEEYKGLVVNKGIEQPSSVNPYLKRKPKKRQLSVAEFVEGIVKGDVTILSQAVTLVESVKPEHQAVAQEVIEKCLPYSGNSIRVGISGVPGAGKSTSIDVFGLHVLEKGGKLAVLAIDPSSERSKGSILGDKTRMEQLSVHPQSFIRPSPSAGSLGGVARKTRETIVLCEAAGFDKIFVETVGVGQSETAVHSMVDFFLLIQLAGTGDELQGIKRGIMEMADGIVINKADGDNLEPAKLAASQFRNALHLFPAPESGWIPKVLTYSGFYNIGVKEIWDMVYEYIDFVKKNGYFDYRRNEQSKYWMYETINEQLRDSFYHNPRIEAMLQEKEQQVLQGNLTSFIAAKSLLDTYFDELKR | not soluble
MGSDKIHHHHHHMEIKKFIENYREAFGEYAELPIVFWYSDILENETGKVNGCFFKSMSKVRGGNTISLNAETIGCGGGKFYTGFTDMPEHVPTFVSLKERYKQTPEMVKSFIEQLGVPRAEKEYLHFARIDKVETFDHLEGILFLANPDILSGLTTWAFFDNNKEDTVISTFGSGCSSVVTQTILENRKGGYRTFIGFFDPSVRPYFEADILSYTIPMSRFKVMYETMRSSCLFDTHAWGKIRERNHNSYKE | not soluble
MGSDKIHHHHHHMELRPDLLFLDVELPDVLGLNLLSEMRDEVLWDMKVVFYTSYDKYLLQALRESAFDFLLKPFETGDLRVVIERYRKAVASIPATPSSSFSSSVSALMPQQGMFMISTVTGFKLLRLEEIGYFEYLKDKRQWQVVLFNQTRLNLKRNTKAEDIIGYSQAFIQISQSAIVNVNYLAMIDGKCCQLYPPFHDKSDLVISRSFLKGLQDRFFVL | not soluble
MGSDKIHHHHHHMEMESPVRILFVIDQFSSPYAGTEGQLLQLISNLPADRFDPELLVLRSSDYVNEGNIPCKVHVLGSSKLFSMKTWLALFQFARRQKQAGTALCHVFFNDSSVLCPPVFGLVGIPTLISRRDMGYWYTRKYLWVLRRTAGFVRGVVANSEAVKRITVQKEGFSDADVSVIYNGYPEGDEELHPLIGEERQRYVETLGLPKSGRFVVLVANLRDIKRIGDAISAMARLTQTLPDTHLVLIGAGDQKPYRMLAEAVGNAGQVHFLGARSDVNNILRVMDVGLLCSESEGYSNAIVEYMQAKLPVVASDVGGNSEAVEHGVTGFLFPMGDVDQMAEQLATVLKGESRAVASMGEAGYKRAGHRHALHTMIEAHCGLYDRLLSGSDYSRSGLGVR | not soluble
MGSDKIHHHHHHMENVREILQELMSKRKLDQRFNNVMKSVYSDPEVISFCEEHQDELSKEAIERGAAKLYEFVSERNKIKNNQATFLPGYQPELVLSNHLIDIEYVPTKQTHLLEQERHRKALVKSISMPKLIRHASLEGYYQEPERTDALAKTLAFVNEYLERPQDWHKGLYLTGSFGVGKTYLMGAMGNALADEGYSTTIVHFPSLAVELKNAIGSSNTIQTKIDAIKKAPILVIDDIGADSISSWIRDDVLGVILEYRMQEELPTFFTSNFSMDQLEREHLTVNQRGEAEPLKAKRLMERIKFLSEEVSMTGKNHRQD | not soluble
MGSDKIHHHHHHMENYLGRLWTKAQLSEQLRKIAISLPSFIKKGSDYICTRCSSSVAKNCQLPTGNYYCRECIVFGRVTSNENLYYFPQKTFSKTNSLKWKGELTPYQNEVSEELLKGISSKENLLVHAVTGAGKTEMIYHSVAKVIDTGGSVCIASPRIDVCLELYKRLSNDFRCAITLMHGESPSYQRSPLTIATTHQLLKFYHAFDLLIVDEVDAFPYVDNPILYQGVKQALKENGTSIFLTATSTTELERKVARKELKKLHLARRFHANPLVIPEMVWVSGIQKSLQTQKLPPKLYQLINKQRQTRYPLLLFFPHISEGQVFTEILRQAFPMEKIGFVSSKSTSRLKLVQDFRDNKLSILVSTTILERGVTFPSVDVFVIQANHHLFTKSSLVQISGRVGRALERPEGLLYFLHDGKSKSMHQAIKEIKNMNHIGGF | not soluble
MGSDKIHHHHHHMEPDFYHGFYPPTPLKTYPEEIFYIGKCTENMQPVGLDIGTNYTKITADGKNVLLYPSIVAYGEEKDWSLKGETKSVYIGDEALSIVQSMENVEVLRPLHEGRVLHTSYLELAKYGLNKLKVKDGLIATGLPVKSSKKEREELKRELESELNSKVLIFPEPVGTMAYMGMETGVCVDIGFGTTDVLVIADMEYLKGDTMLMGVDKLYENLEVAVRNRIGISITPEEMTKLLTTEGYEIGRIRGGKKVSVSREEIMPEYEGYVKTWVERIASRVKLVLEGLSTTLVENFAITGGGSMLPGVYEMFKESFSDIGDVKRPDEPIKANSIGYYILAKSLVVEAETEQSGDAEILDADDKKKGRKGKK | not soluble
MGSDKIHHHHHHMEPHWDDMKVFLAVAREESLSGAGRQLKLDPATVGRRIARLESAYDTPLFAKSPQGYTLTAAGERLLSHGEQAEAAMRSASEALAGTTEGLTGQIRIGAPDGSANYLLPQVCAQISDENPELDIQILALPRIINLSRREADMAVTVSAPTAGHLLVQKITDYKLHMVASRRYLRGHPPIETLADLRGHRMIGYIPDMIFDRELDYLNDIGIERVALASNSVSVQLRQAGHGSGICVAHDFTLPFHGNLRRILTDQVSLTRSFYLVRHQGDQRSERLNRFAEALTRGIRDEVARLEADAMS | not soluble
MGSDKIHHHHHHMEQNAEKRSIVGDDNSTVKRQDTSPSKGIAHIKPEYIVPLKQNENQKVAIYDEEMSSDRMTNEFAGGTNKKNKNGRGKKRGQNKNRDNRQVKEQNVLCPRLIHGDISKCSFGDNCRFVHDINLYLSTKKPEVESNIFPSCPVFNSLGFCPMGFKCRFLSSHLNKEDNILISKKEIDPDAQTIWSVKGEVNHISPERKLDLIKRRFPFTKSNEILEIIDSFQQECRDSMKPEEEVESTPQLKKQDPDVEQPVAPQVEQRNKELSEHRMKQREVYLKYKDTRYFAQEKKPLDLYHKKIVSPLTTVGNLPYRRLMRKLGADVTYSEMALAVPLIQGTNSEWALPKAHTSEFPGFGVQVACSKAWQAAKAAEALANSVSEISEINLNSGCPIDLLYRQGSGSALLDNPARMIRCLNAMNYVSKDIPITVKIRTGTKEGHPIAEGLVKRLVNETDVAAITLHGRSRQQRYTKSADWDYVSQVADTLRSAEADFIETEQGKEGRDSKNRIQFVGNGDVNNFEDWYRYLNGNENIDSVMVARGALIKPWIFEEVESQQYLDKTSTERLDILRDYAQFSMEHWGTDEYGISQCRRFFCEFMSFFHRYVPWVFVKDTL | not soluble
MGSDKIHHHHHHMERAGLAALEDALRNGLSEPFCKAIETIGQSNGRLIITGVGKSGHIGAKLAATFASTGTPAFFVHAAEANHGDLGMIGGDDVVLAISKGGESAELRSIINYSRRFSIPLIALTCSENSSLARASDIVLLVPNEQEACPLGLAPTTSTLMQLALGDALAVALLEARNFTAGDFKVFHPGGKLGASLTLVSDIMHTGDRVPLVNKGTAMPEAVGVLSRKHFGCVGILDEDGRLCGIVTEGDMARNLSRNLAELVVDDIMTRSPKTVKKSVLATSALATLEKFHIGALIVVDDDNRPIGLVHFHDLLRIGVA | not soluble
MGSDKIHHHHHHMERFCCVNQINYIQMNPLEAKFKTSALRSWKTDQADAHKLACLGPTLKQTDNLPIHELIFFELRERVRFHLEIENEQNRLKFQILELLHQTFPGLERLFSSRYSIIALNIAEIFTHPDMVLDIDKEVLITHIFNSTDKGMSMDKATKYALQLRVIAQESYPNVDRHSFLVEKLRLLIQQLKQSIHHPKQLDDAMIQLAQQLDYFENIHSIPGIGKLSTAMIIGEIGDIKRFKSNKQLNAFVGIDIKRYQSGHTHCRDTINKRGNKKARKLLFWVIMNIIRGQHHYDNHVVDYYYKLRKQPNEKPHKTAIIACINRLLKTIHYLVMNHKLYDYQMSPH | not soluble
MGSDKIHHHHHHMERRTILVTGASGFVGGALCRQLATLGSFAIRAASRDLGGASVAGIQAVTVADLSATTDWARALSGVDLVVHAAARVHVMKETASDSLAEFRRVNVDGTLNLARQAAAAGVRRFIFISSIKVNGESSQPGQPLRADDSPAPQDAYGVSKHEAEQGLRQLAAATGMEVVVIRPVLVYGPGVKANFHSMMRWLQRGVPLPFGAVCNRRSLVSLANLVDLVVTCIDHPRAANQTFLASDGDDVSLTQLLRALGLALGRPARLLPVPAGLLRGAVLLIGRRDLAQRLFGTLQVDIEKNRQLLGWYPPCTLEQGLNMTARSFLGARRP | not soluble
MGSDKIHHHHHHMETLQLRDISETALLPLWARAMETLRPDAIIHDDKALEMYQRLNYDFKRFSNAWLSQLAIAIRTDLIDKLVMDFINAHPQAVIINLGAGFDSRYLRVDNGQIHWFDLDLPNVIAARRLFFSDSDRYRMLEQSLFDVSWLEHAAGESDNCLILAEGVLMYFTEQRIKQFFNDLAERIPHARMLLEMLPHGALGQAHLHEAIGWMNAAFQWTLHNIRRLESWNSHIKVRQEWCILDYHWERWGALSLLAWSPWHRYLFGEKLALLEFD | not soluble
MGSDKIHHHHHHMETQDYAFQPGLTVGELLKSSQKDWQAAINHRFVKELFAGTIENKVLKDYLIQDYHFFDAFLSMLGACVAHADKLESKLRFAKQLGFLEADEDGYFQKAFKELKVAENDYLEVTLHPVTKAFQDLMYSAVASSDYAHLLVMLVIAEGLYLDWGSKDLALPEVYIHSEWINLHRGPFFAEWVQFLVDELNRVGKNREDLTELQQRWNQAVALELAFFDIGYDV | soluble
